Experimental data as given in PMC4552487.

Target: Parkin 80-465 (UniProt O60260)
Assay: AlphaScreen, competition with GST-Ubl (1-76)
Conditions: reference: unphosphorylated Ubl (1-76); sites S65

- binding against the reference: weaker
Substance: Parkin Ubl domain, 1-76 (from UniProt O60260) Ubl (1-76) phosphorylated by TcPINK1, Mono-Q purified
